The values that follow come from article doi:10.1101/2021.07.23.453429.

Assay [1] deals with cyclophilin D (UniProt P30405). The assay is described as follows: SPR.
For assay [2], the target named is cyclophilin D (UniProt P30405). Put plainly: NMR titration.

Sequence of cyclophilin D (P30405 43-207): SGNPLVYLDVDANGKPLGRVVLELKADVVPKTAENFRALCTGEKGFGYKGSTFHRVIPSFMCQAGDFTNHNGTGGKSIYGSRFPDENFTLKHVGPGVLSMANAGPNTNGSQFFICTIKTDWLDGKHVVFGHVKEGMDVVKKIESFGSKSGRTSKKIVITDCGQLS

One may read the Kd as the free concentration of one partner at which half of the binding sites on the other are occupied at equilibrium, for simple one-to-one binding. A high value points to weaker binding. Turning to “p53 N-terminal domain (NTD) (domain or fragment)”, the Kd in assay [1] was 8.4 µM. In assay [2], this substance displayed a residue-based KD (CypD residue G65) of 4.1 μΜ, a residue-based KD (CypD residue I114) of 32 μΜ and a residue-based KD (CypD residue S77) of 6.6 μΜ.
In assay [1], p53 NTD-DBD (domain or fragment) yielded a Kd of 10 µM.
